Experiment: yeast display, Sf9 membrane polyspecificity reagent, FACS + sequencing; frameworks hold sequencing errors
How it was run: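 In a synthetic yeast display library (Saccharomyces cerevisiae BJ5465), nanobody expression was induced with galactose for 36–48 hours. FACS gates were set low and high (top ~1%) using anti-HA fluorescence for expression and streptavidin fluorescence for binding of the Sf9 membrane reagent. Each polyreactivity label is drawn from the gate of origin.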

Sequence	polyreactivity (PSR sort gate)
QVQLVESGGGLVQAGGSLRLSCAASGITFKYYTMGWYRQAPGKERELVAAITSRAGRTYADSVKGRFTISRDNAKNTVYLQMNSLKPEDTAVYYCARRVDYPYAYDYWGQGTQVTVSS	high polyreactivity
QVQLVESGGGLVQAGGSLRLSCAASGITFLGNAMGWYRQAPGKERELVAAISASGGRTYYADSVKGRFTISRDNAKNTVYLQMNSLKPEDTPVYYCAAASKPWYYYWGQGTQVTVSS	high polyreactivity
QVQLVESGGGLVQAGGSLRLSCAASGITFLHYAMGWYRQAPGKERELVARITYSGSSTYYADSVKGRFTISRDNAKNTVYLQMNSVKPEDTAVYYCNARASWGRWSRTGTPRYDYWGQGTQVTVSS	high polyreactivity
QVQLVESGGGLVQAGGSLRLSCAASGITFLKNAMGWYRQAPGKERELVAAISSSGGSTYYADSVKGRFTISRDNAKNTVYLQMNSLKPEDTAVYYCAALSVGKRYRYEYWGQGTQVTVSS	high polyreactivity
QVQLVESGGGLVQAGGSLRLSCAASGITFLSNAMGWYRQAPGKERELVAAISRGGGTTYYADSVKGRFTISRDIAKNTVYLQMNSLKPEDTAVYYCAKGRCSSSRFDYWGQVTQVTVSS	high polyreactivity
QVQLVESGGGLVQAGGSLRLSCAASGITFLYYAMGGYRQAPGKERELVAAITSGGSTYYADSVKGRFTISRDNAKNTVYLQMNSLKPEDTAVYYCAAGTYDGGYHYDYWGEGTQVTVSS	high polyreactivity
QVQLVESGGGLVQAGGSLRLSCAASGITFLYYAMGWYRQAPGKERELVAAISGGGASTYYADSVKGRFTSSRDNAKNTVYLQMNSLKPEDTAVYDCAAGYRDFFRARFGYWGQGTQVTVAS	high polyreactivity
QVQLVESGGGLVQAGGSLRLSCAASGITFLYYAMGWYRQAPGKERELVAAITRGGRTNYADSVKGRFTISRDNAKNTVYLQMNSLKPEDTAVYYCAARRSRPTYYSTGVNYWGQGTQVTVSS	high polyreactivity
QVQLVESGGGLVQAGGSLRLSCAASGITFLYYAMGWYRQAPGKERELVAGISGTGGRTYYADSVKGRFTISRDNAKNTVYLQMNSLKPEDTAVYYCAARRTTWGYGYWGQGTQVTVSS	high polyreactivity
QVQLVESGGGLVQAGGSLRLSCAASGITFNDYALGWYRQAPGKERELDAAIDWSGGRTYYADSVKGRFTISRDNAKNTVYLQMNSLKPEDTAVYYCAAVLYSRLFWYRLDYWGQGTQVTVSS	low polyreactivity
QVQLVESGGGLVQAGGSLRLSCAASGITFNHYAMGWSRQAPGKERELVAVISRTVGSTYYADSVKGRFTISRDNAKNTVYLQMNSLKPEDTAVYYCAARGPRPDGYSGRSDYWGQGTQVTVSS	high polyreactivity
QVQLVESGGGLVQAGGSLRLSCAASGITFNPNAMGLYRQAPGKERELVAVITYRGGSTYYADSVKGRFTISRDNAKNTVYLQMNSLKPEDTAVYYCAAQYIGWHLYWYDYWGQGTQVTVSS	low polyreactivity
QVQLVESGGGLVQAGGSLRLSCAASGITFNRYAMGWYRQAPGKERELVARISLRGGNTYYADSVKGRFTISRDNAKNTVYLQMNSLKPEDTAVYYCAVRGRASLRGTRYGYWGQGTQVTVSS	high polyreactivity
QVQLVESGGGLVQAGGSLRLSCAASGITFNRYAMGWYRQAPGKERELVARISLRGGNTYYADSVKGRFTISRDNAKNTVYLQMNSLKPEDTAVYYCNAPYYSRRGNSWGQGTQVTVSS	high polyreactivity
QVQLVESGGGLVQAGGSLRLSCAASGITFNVNAMGWYRQAPGKERELVAAISWRGGSTYYADSVKGRFTISRDNAKNTVYLQMNSLKPEDTAVYYCAAKLDGSSYYYWGQGTQVTVSS	low polyreactivity
QVQLVESGGGLVQAGGSLRLSCAASGITFNVNAMGWYRQAPGKERELVARITTSGGSTSYADSVKGRFTISRDNAKNTVYLQMNSLKPEYTAVYYCAADRARYYSEYDYWGQGTQVTVSS	low polyreactivity
QVQLVESGGGLVQAGGSLRLSCAASGITFNVYTMGWYRQAPGKERELVAAITSSGGSTYYADSVKGRFTISRDNAKNTVYLQMNSLKPEDTAVYYCAARGWTRYSPSSRWYDYWGQGTQVTVSS	high polyreactivity
QVQLVESGGGLVQAGGSLRLSCAASGITFNYYDMGWYRQEPWKARELVATINRSGGTTYYADSVKGRFTISRDTAKNTVYLQMNTMKPEDTAVYYCNALYSSRGRYHSGYDYWGQGTQVTVSS	high polyreactivity
QVQLVESGGGLVQAGGSLRLSCAASGITFPANAMGWYRQSPGKERELVADISESDGSTYYADSVKGRFTISRDNAKHTVYLQMNRLKPEDTAVYYRAADGTYGTRSDYWGQGTQVTVSS	low polyreactivity
QVQLVESGGGLVQAGGSLRLSCAASGITFPFNAMGWYRQAPGKERELDAAISSTGSTNYADSVKGRFTISRDNAKNTVYLQMNSLKPEDTAVYYCNKRSNYRRGDGRRHLYWGQGTQVTVSS	low polyreactivity
QVQLVESGGGLVQAGGSLRLSCAASGITFPGNAMGWYRQAPGTERELVAVIRKSGTSTYYADSVKGRFTISRDNAKNTVYLQMNSLKPEDTAVYYCAAGGPSTLDDYWGQGTQVTVSS	low polyreactivity
QVQLVESGGGLVQAGGSLRLSCAASGITFPGYAMGWYRQAPGKERELVAAISIGGITYYADSVKGRFTISRDNAKNTVYLQMNSLKPEDTAVYYCAKDVTDPSSRSDPSGDDYWGQGTQVTVSS	low polyreactivity

Sequence	polyreactivity (PSR sort gate)
QVQLVESGGGLVQAGGSLRLSCAASGITFPKYAMGWYRQAPGKERELVAAITKSGGSTYYADSVKGRFTISRDNAKNTVYLQMNSLKPEDTAVYYCAARPRYGEYDYWGQGTQVTVSS	high polyreactivity
QVQLVESGGGLVQAGGSLRLSCAASGITFPLYAMGWYRQAPGKERELVAAITSTGGTTYYADSVKGRFTISRDNAKNTVYLQMNSLKPEDTAVYYCAAEWLVYGYQRGYYYWGQGTQVTVSS	high polyreactivity
QVQLVESGGGLVQAGGSLRLSCAASGITFPPYAMGWYRQAPGKERELVAAISWSGTSTYYADSVKGRFTISRDNAKNPVYLQMNSLKPEDTAVYYCAAVPRHPYHDKYDYWGQGTQVTVSS	high polyreactivity
QVQLVESGGGLVQAGGSLRLSCAASGITFPVYVMGWYRQAPGKERELVAAISNGGDTYYADSVKGRFTISRDNAKNTVYLQMNSLKPVDTAVYYCAAYYSFPNDYGYEYDYWGQGTQVTVSS	low polyreactivity
QVQLVESGGGLVQAGGSLRLSCAASGITFPWYAMGWYRQAPGKERELVAAINLAGNTNYADSVKGRFTISRDNAKNNVYLQMNSLKPEDTSVYYCAARWRYKYTLGYWGQGTQVTVSS	high polyreactivity
QVQLVESGGGLVQAGGSLRLSCAASGITFPWYAMGWYRQAPGKERELVASKTSGASTNYADSVKGRFTISRDNAKNTVYLQMNSLKPEYSAVYYCARDWYSPVYWAAGYDAWGSGYDYWGQGTQVTVSS	high polyreactivity
QVQLVESGGGLVQAGGSLRLSCAASGITFQDYAMGWYRQAPGKERELVAAISKSGGSTYYADSVKGRFTISRDNAKNTVYLQINSLKPEDTAVYYCATRYLYSNRAYDYWGQGKQVTVSS	high polyreactivity
QVQLVESGGGLVQAGGSLRLSCAASGITFQRYALGWYRQAPGKERELVAAITRGGSTNYADSVKGRFTISRDNAKNTVYLQMNSLKPEDTAVYYCAAGARYGYGYWGQGTQVTVSS	high polyreactivity
QVQLVESGGGLVQAGGSLRLSCAASGITFQWYTMGWYRQAPGKERELVATISSGGSTNYADSVKGRFTISRDNAKNTVYLQMNSLKPEDTAVYYCAKQPTVYHHYGLGYWGQGTQVTVSS	low polyreactivity
QVQLVESGGGLVQAGGSLRLSCAASGITFRFNAMGWYRQAPGKERELVAAITSSGGRTYYADSVKGRFTISRDNAKNTVYLQMNSLKPEDTAVYYCNVRRLASYSFPYGYWGQGTQVTVSS	high polyreactivity
QVQLVESGGGLVQAGGSLRLSCAASGITFRGNAMGWYRQAPGKERELVATISSGGITNYADSVKGRFTISRDNAKNTVYLQMNSLKPEDTAVYDCNADNAYGFYRVKYEGYYWGQGTQVTVSS	low polyreactivity
QVQLVESGGGLVQAGGSLRLSCAASGITFRGYAMGWYRQAPGKERELVAAINSGGSTNYADSVKGRFTISRDNAKNTVYLQMNSLKPEDTAVYYCAAGWYYYWGNYLSYAYDYWGQGTQVTVSS	high polyreactivity
QVQLVESGGGLVQAGGSLRLSCAASGITFRGYAMGWYRQAPGKERELVAAISSGGRTNYADSVKGRFTISRDNAKNTVYLQMNSLKPEDTAVYYCAARYRREKAGYRWDIFYWGQGTQVTVSS	high polyreactivity
QVQLVESGGGLVQAGGSLRLSCAASGITFRIYAMGWYRQAPGKEREFVAAINQRGGSTYYADSVKGRFTISRDNAKNTVYLQMNSLKPEDTAVYYCNADYSYVGEYDYWGQGTQVTVSS	low polyreactivity
QVQLVESGGGLVQAGGSLRLSCAASGITFRKYVMGWYRQAPGKERELVATITRNGGTTNYADSVKGRFTISRDNAKNTVYLQMNSLKPEDTAVYYCAAVRRDYDDVYTEYWGQGTQVTVSS	high polyreactivity
QVQLVESGGGLVQAGGSLRLSCAASGITFRNYAMGWYRQAPGKERELVADITTGGSTYADSVKGRFTISRDNAKNTVYLQMNSLKPEDTAVYDCAADRDFRTPRLYYWGQGTQVTVSS	low polyreactivity
QVQLVESGGGLVQAGGSLRLSCAASGITFRRNAMGWYRQAPGTERELVAGISGRGGSTYYADSVKGRFTISRDNAKNTVYLQMNSLKPEDTAVYYCAAVRFRTPTLEYWTRYDYWGQGTQVTVSS	high polyreactivity
QVQLVESGGGLVQAGGSLRLSCAASGITFRRSAMGWYRQAPGKEREVVAAISIRGGRTYYADAVKGRFTISRDNAKNTVYLQMNSLIPEDTAVYYCAADGVYALDVESDYWGLGTQVTVSS	high polyreactivity
QVQLVESGGGLVQAGGSLRLSCAASGITFRRYAMGWYRQAPGKESELVAAITSSGGSTYYADSVKGRFTISRDNAKNTVYLLMISLKPEDTAVYYCAAAFFSQYYLYEYWGQGTQVTVSS	high polyreactivity
QVQLVESGGGLVQAGGSLRLSCAASGITFRRYTMGWYIQAPGKERELVATISLSDGNTYYADSVKGRFTISRDNAKNTVYLQMNSLKPEDTAVYYCNARHTWHQTYDYWGQGTQVTVSS	low polyreactivity
QVQLVESGGGLVQAGGSLRLSCAASGITFRRYTMGWYRQAPGKERELVASISSTGSTNYADSVKGRFTISRDNAKNTVYLQMNSLKPEDTAVYYCAARRPYPYVGYEYWGQGTQVTVSS	high polyreactivity

— the nanobody polyreactivity screen of Harvey et al. (2022)
